The target in the data set is HOXD13 DNA binding domain (D13DBD) (Mus musculus, UniProt P70217). The data set can be described thus: NMR.

B1: HOXD13 duplex DNA (dsDNA)
DNA 1: CAACGTTAAAAC
DNA 2: GTTTTAACGTTG
With B1, the binding result was “binds”.
